Legend:
α3β4 = target: T1, α3β4 (Homo sapiens, UniProt P30926+P32297); test: Ion channel panel (IonWorks Barracuda): α3β4; assay type: cell-based; settings: 100% = no change, <100% = inhibition
T1 construct: host or cells: HEK293 or CHO
In short: (§1)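 Transfected HEK293 or CHO cells were exposed for at least 5 min to peptides at 200 nM and 20 μM final, tested in duplicate, in HEPES-buffered physiological saline. Activation was taken as peptide-plus-agonist current over control current ×100, and inhibition as 1 minus that ratio ×100. Each channel's control was its own reference compound.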

GABA = test: Ion channel panel (IonWorks Barracuda): GABA; assay type: cell-based; settings: 100% = no change, <100% = inhibition
In short: as §1

hERG = hERG (Homo sapiens, UniProt Q12809); test: in vitro; settings: 100% = no change, <100% = inhibition
In short: as §1

Nav1.5 = Nav1.5 (Homo sapiens, UniProt Q14524); test: in vitro; settings: 100% = no change; for Activity of Nav1.5 with peptide, expressed as a percentage of the reference compound: peptide at 0.2 μM; for Activity of Nav1.5 with peptide (percentage of the reference compound): peptide at 20 μM
Nav1.5, sequence (Q14524 whole entry): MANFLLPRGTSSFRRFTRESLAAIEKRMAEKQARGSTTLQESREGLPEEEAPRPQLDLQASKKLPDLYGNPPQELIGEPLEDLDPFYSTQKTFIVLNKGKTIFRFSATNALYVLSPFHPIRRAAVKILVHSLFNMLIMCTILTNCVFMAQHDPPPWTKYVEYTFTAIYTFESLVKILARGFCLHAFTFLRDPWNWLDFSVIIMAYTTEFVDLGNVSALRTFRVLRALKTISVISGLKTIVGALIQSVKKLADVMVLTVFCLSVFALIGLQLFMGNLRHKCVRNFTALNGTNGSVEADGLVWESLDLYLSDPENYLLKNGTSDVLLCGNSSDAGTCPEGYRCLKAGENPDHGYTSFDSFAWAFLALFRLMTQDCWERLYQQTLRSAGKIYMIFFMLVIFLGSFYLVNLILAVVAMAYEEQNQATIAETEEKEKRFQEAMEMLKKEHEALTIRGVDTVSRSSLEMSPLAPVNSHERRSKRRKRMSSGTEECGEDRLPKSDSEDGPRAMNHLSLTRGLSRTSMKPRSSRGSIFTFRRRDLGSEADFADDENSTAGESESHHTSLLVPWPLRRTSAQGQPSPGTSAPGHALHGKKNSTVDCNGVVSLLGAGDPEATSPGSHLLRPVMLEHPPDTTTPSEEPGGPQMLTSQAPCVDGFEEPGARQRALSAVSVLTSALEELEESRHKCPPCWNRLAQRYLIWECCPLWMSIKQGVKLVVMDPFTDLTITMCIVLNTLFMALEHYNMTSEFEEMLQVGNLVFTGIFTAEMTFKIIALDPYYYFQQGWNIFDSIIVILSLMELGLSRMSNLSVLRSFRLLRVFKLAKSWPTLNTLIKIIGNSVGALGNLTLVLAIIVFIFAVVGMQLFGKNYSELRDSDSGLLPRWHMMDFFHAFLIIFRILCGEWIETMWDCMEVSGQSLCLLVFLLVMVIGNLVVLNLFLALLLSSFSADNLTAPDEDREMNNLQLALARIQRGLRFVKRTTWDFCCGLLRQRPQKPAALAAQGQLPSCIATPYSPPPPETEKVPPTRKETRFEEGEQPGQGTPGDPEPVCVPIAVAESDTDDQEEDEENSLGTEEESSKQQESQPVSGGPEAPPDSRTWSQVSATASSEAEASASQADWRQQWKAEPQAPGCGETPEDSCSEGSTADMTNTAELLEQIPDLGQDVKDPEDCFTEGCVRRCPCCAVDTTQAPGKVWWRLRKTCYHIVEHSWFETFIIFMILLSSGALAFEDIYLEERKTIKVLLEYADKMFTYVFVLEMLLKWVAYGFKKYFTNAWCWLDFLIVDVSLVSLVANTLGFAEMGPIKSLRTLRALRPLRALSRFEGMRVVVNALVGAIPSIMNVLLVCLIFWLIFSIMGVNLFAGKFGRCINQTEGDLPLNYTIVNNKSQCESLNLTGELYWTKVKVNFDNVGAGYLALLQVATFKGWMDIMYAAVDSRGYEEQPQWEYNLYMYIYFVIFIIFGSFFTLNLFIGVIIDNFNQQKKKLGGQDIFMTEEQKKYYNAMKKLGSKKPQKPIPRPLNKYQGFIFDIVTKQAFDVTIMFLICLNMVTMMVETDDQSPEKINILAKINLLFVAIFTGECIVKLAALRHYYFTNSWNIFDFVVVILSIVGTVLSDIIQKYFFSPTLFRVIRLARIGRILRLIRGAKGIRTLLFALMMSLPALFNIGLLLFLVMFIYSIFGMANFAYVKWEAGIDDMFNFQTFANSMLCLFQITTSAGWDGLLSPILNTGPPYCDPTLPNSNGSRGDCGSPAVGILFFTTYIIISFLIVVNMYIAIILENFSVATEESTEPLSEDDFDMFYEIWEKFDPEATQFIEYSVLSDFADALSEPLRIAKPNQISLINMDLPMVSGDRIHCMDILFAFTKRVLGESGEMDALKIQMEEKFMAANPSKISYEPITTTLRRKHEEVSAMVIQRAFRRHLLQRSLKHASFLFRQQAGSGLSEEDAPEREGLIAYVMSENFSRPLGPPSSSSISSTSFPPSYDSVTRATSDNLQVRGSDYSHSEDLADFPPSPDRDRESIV
In short: as §1

NR2A = target: T2, NR2A (Homo sapiens, UniProt Q12879); test: Ion channel panel (IonWorks Barracuda): NR2A; assay type: cell-based; settings: 100% = no change, <100% = inhibition
T2 construct: host or cells: HEK293 or CHO
In short: as §1

TRPV1 = target: T3, TRPV1 (Homo sapiens, UniProt Q8NER1); test: Ion channel panel (IonWorks Barracuda): TRPV1; assay type: cell-based; settings: 100% = no change, <100% = inhibition
T3 construct: host or cells: HEK293 or CHO
In short: as §1

Kv1.1 = target: T4, Kv1.1 (Homo sapiens, UniProt Q09470); test: cell-based; assay type: cell-based; settings: 100% = no change, <100% = inhibition
T4 construct: host or cells: HEK293 or CHO
In short: as §1

Kv1.3 = target: T5, Kv1.3 (Homo sapiens, UniProt P22001); test: cell-based; assay type: cell-based; settings: 100% = no change, <100% = inhibition
T5 construct: host or cells: HEK293 or CHO
In short: as §1

Kv1.2 = target: T6, Kv1.2 (Homo sapiens, UniProt P16389); test: cell-based; assay type: cell-based; settings: 100% = no change, <100% = inhibition
T6 construct: host or cells: HEK293 or CHO
In short: as §1

5HT3a = target: T7, 5HT3a (Homo sapiens, UniProt P46098); test: Ion channel panel (IonWorks Barracuda): 5HT3a; assay type: cell-based
T7 construct: host or cells: HEK293 or CHO
T7 sequence (P46098 whole entry, looked up): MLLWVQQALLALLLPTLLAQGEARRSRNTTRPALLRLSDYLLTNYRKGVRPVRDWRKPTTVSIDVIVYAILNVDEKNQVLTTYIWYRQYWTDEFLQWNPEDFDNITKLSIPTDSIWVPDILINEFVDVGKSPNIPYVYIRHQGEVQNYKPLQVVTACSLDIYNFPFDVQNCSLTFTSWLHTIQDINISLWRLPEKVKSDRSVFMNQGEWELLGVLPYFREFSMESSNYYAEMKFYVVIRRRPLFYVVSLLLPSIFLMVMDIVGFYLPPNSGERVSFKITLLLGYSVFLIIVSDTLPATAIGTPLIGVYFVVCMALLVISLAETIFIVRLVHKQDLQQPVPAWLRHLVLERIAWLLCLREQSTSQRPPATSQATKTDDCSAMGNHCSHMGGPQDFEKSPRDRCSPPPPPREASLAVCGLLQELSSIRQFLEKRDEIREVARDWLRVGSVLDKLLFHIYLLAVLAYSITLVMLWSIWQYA
In short: as §1

NR2B = target: T8, NR2B (Homo sapiens, UniProt Q13224); test: Ion channel panel (IonWorks Barracuda): NR2B; assay type: cell-based; settings: 100% = no change, <100% = inhibition
T8 construct: host or cells: HEK293 or CHO
In short: as §1

Kv2.1 = target: T9, Kv2.1 (Homo sapiens, UniProt Q14721); test: cell-based; settings: 100% = no change, <100% = inhibition
T9 construct: host or cells: HEK293 or CHO
T9 sequence (Q14721 whole entry): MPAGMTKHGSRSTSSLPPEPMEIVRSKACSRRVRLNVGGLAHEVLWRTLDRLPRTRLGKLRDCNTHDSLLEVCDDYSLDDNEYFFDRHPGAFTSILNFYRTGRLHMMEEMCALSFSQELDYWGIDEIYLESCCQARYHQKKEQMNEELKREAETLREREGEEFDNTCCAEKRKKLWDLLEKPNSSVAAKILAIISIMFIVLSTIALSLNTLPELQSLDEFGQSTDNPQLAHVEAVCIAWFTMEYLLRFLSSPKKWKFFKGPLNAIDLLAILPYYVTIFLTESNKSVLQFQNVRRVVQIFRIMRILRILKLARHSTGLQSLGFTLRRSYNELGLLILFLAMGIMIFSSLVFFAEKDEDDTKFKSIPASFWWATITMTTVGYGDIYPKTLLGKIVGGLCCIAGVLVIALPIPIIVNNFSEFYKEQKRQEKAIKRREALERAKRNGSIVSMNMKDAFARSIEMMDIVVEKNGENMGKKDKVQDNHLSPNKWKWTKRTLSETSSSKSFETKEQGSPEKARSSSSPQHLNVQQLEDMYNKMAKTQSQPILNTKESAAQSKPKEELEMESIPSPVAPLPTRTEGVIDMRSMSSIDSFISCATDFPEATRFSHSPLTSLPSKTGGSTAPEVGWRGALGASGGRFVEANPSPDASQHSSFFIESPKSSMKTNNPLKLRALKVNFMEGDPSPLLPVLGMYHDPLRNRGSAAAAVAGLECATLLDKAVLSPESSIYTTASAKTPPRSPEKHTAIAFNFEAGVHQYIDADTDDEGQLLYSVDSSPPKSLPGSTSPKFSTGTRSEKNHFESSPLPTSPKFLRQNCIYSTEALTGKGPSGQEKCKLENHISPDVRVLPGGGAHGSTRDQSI
In short: as §1

Cav2.2 = target: T10, Cav2.2 (Homo sapiens, UniProt Q00975); test: cell-based; settings: 100% = no change, <100% = inhibition
T10 construct: host or cells: HEK293 or CHO
In short: as §1

Cav2.1 = target: T11, Cav2.1 (Homo sapiens, UniProt O00555); test: cell-based; settings: 100% = no change, <100% = inhibition
T11 construct: host or cells: HEK293 or CHO
In short: as §1

Kir2.1 = target: T12, Kir2.1 (Homo sapiens, UniProt P63252); test: Ion channel panel (IonWorks Barracuda): Kir2.1; assay type: cell-based; settings: 100% = no change, <100% = inhibition
T12 construct: host or cells: HEK293 or CHO
In short: as §1

TRPA1 = target: T13, TRPA1 (Homo sapiens, UniProt O75762); test: Ion channel panel (IonWorks Barracuda): TRPA1; assay type: cell-based; settings: 100% = no change, <100% = inhibition
T13 construct: host or cells: HEK293 or CHO
In short: as §1

Nav1.7 = target: T14, Nav1.7 (Homo sapiens, UniProt Q15858); test: cell-based; assay type: cell-based; settings: 100% = no change; for Activity of Nav1.7 with peptide, expressed as a percentage of the reference compound: peptide at 0.2 μM; for Activity of Nav1.7 with peptide (percentage of the reference compound): peptide at 20 μM
T14 construct: host or cells: HEK293 or CHO
T14 sequence (Q15858 whole entry): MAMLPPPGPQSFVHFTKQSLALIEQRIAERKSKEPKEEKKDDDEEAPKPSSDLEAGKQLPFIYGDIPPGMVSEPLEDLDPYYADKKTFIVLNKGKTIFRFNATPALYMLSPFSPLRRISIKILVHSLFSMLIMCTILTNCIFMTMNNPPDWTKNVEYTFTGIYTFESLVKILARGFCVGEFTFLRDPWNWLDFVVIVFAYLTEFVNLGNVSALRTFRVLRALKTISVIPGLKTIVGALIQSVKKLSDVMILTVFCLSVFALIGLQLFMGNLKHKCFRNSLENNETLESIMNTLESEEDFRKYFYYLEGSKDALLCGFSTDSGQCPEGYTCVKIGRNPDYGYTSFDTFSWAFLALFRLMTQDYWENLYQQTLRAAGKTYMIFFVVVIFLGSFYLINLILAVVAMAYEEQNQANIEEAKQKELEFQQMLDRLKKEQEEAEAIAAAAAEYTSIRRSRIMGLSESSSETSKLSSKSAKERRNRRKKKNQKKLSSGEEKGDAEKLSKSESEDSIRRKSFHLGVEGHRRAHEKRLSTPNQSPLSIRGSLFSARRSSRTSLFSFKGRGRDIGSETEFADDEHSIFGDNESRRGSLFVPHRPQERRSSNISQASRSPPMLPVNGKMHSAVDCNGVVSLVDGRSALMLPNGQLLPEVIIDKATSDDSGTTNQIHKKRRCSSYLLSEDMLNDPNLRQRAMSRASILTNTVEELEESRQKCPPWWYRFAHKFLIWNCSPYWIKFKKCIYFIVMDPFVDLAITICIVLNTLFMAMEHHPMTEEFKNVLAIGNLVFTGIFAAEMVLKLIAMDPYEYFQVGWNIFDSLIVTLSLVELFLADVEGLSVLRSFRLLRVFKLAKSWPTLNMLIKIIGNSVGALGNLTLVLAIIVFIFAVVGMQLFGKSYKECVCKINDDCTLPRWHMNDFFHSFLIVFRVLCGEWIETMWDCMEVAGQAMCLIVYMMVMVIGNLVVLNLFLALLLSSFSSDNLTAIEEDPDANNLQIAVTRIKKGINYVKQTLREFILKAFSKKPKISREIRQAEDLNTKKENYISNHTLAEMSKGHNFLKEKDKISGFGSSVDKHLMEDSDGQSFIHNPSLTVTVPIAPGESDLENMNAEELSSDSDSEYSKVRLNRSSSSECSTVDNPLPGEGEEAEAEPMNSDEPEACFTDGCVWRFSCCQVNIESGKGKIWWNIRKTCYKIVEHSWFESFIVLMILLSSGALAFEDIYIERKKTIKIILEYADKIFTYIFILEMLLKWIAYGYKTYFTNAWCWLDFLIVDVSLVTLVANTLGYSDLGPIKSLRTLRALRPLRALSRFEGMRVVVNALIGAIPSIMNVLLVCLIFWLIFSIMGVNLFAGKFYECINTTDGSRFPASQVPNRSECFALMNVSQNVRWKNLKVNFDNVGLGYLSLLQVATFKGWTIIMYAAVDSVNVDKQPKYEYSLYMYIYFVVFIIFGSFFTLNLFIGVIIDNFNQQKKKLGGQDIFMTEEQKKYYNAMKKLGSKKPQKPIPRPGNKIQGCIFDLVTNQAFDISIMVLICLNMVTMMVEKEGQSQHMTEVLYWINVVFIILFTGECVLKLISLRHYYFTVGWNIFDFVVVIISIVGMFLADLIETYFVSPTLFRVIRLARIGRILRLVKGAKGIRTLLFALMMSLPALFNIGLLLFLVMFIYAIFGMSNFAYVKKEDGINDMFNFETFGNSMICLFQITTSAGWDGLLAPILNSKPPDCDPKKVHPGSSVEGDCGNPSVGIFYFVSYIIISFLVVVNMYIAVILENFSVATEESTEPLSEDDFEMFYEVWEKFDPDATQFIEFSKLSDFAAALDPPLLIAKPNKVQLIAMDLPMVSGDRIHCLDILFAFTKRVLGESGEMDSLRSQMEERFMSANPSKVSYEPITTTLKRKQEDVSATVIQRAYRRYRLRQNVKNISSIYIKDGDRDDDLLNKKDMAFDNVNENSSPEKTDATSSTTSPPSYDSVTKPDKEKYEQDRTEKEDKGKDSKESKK

α4β2 = target: T15, α4β2 (Homo sapiens, UniProt P17787+P43681); test: Ion channel panel (IonWorks Barracuda): α4β2; assay type: cell-based; settings: 100% = no change, <100% = inhibition
T15 construct: host or cells: HEK293 or CHO
In short: as §1

[1] = first of two Nav1.5 columns (probably TP1)
[2] = second of two Nav1.5 columns (probably TP2)
[3] = first of two Nav1.7 columns (probably TP1)
[4] = second of two Nav1.7 columns (probably TP2)

In the case of “12 (GSNFKVEGACSKPCRKYCIDKGARNGKCINGRCHCYY) [compound 12]”, the “Activity of a3b4 with peptide, expressed as a percentage of the reference compound” value (α3β4; peptide at 0.2 μM) is reported as 103%, the “Activity of a3b4 with peptide (percentage of the reference compound)” value (α3β4; peptide at 20 μM) is reported as 94% and the “Activity of GABA with peptide, expressed as a percentage of the reference compound” value (GABA; peptide at 0.2 μM) is reported as 102%. For the same substance, the “Activity of GABA with peptide (percentage of the reference compound)” value (GABA; peptide at 20 μM) was 93%, the “Activity of hERG with peptide, expressed as a percentage of the reference compound” value (hERG; peptide at 0.2 μM) was 89% and the “Activity of hERG with peptide (percentage of the reference compound)” value (hERG; peptide at 20 μM) was 81%. The “Activity of Nav1.5 with peptide, expressed as a percentage of the reference compound” value (Nav1.5; [1]) was 98%, the “Activity of Nav1.5 with peptide, expressed as a percentage of the reference compound” value (Nav1.5; [2]) was 95% and the “Activity of Nav1.5 with peptide (percentage of the reference compound)” value (Nav1.5; [1]) was 131%. The “Activity of Nav1.5 with peptide (percentage of the reference compound)” value (Nav1.5; [2]) was 136%, the “Activity of NR2A with peptide, expressed as a percentage of the reference compound” value (NR2A; peptide at 0.2 μM) was 94% and the “Activity of NR2A with peptide (percentage of the reference compound)” value (NR2A; peptide at 20 μM) was 91%. The “Activity of TRPV1 with peptide, expressed as a percentage of the reference compound” value (TRPV1; peptide at 0.2 μM) was 97%, the “Activity of TRPV1 with peptide (percentage of the reference compound)” value (TRPV1; peptide at 20 μM) was 78% and the “Activity of Kv1.1 with peptide, expressed as a percentage of the reference compound” value (Kv1.1; peptide at 0.2 μM) was 107%. The “Activity of Kv1.1 with peptide (percentage of the reference compound)” value (Kv1.1; peptide at 20 μM) was 84%, the “Activity of Kv1.3 with peptide, expressed as a percentage of the reference compound” value (Kv1.3; peptide at 0.2 μM) was 68% and the “Activity of Kv1.3 with peptide (percentage of the reference compound)” value (Kv1.3; peptide at 20 μM) was 23%. For the same substance, the “Activity of Kv1.2 with peptide, expressed as a percentage of the reference compound” value (Kv1.2; peptide at 0.2 μM) was 88%, the “Activity of Kv1.2 with peptide (percentage of the reference compound)” value (Kv1.2; peptide at 20 μM) was 41% and the “Activity of 5HT3a with peptide (percentage of the reference compound)” value (5HT3a) was 97%. For the same substance, the “Activity of 5HT3a with peptide, expressed as a percentage of the reference compound” value (5HT3a) was 96%, the “Activity of NR2B with peptide, expressed as a percentage of the reference compound” value (NR2B; peptide at 0.2 μM) was 122% and the “Activity of NR2B with peptide (percentage of the reference compound)” value (NR2B; peptide at 20 μM) was 83%. The “Activity of Kv2.1 with peptide, expressed as a percentage of the reference compound” value (Kv2.1; peptide at 0.2 μM) was 104%, the “Activity of Kv2.1 with peptide (percentage of the reference compound)” value (Kv2.1; peptide at 20 μM) was 113% and the “Activity of Cav2.2 with peptide, expressed as a percentage of the reference compound” value (Cav2.2; peptide at 0.2 μM) was 115%. The “Activity of Cav2.2 with peptide (percentage of the reference compound)” value (Cav2.2; peptide at 20 μM) was 115%, the “Activity of Cav2.1 with peptide, expressed as a percentage of the reference compound” value (Cav2.1; peptide at 0.2 μM) was 109% and the “Activity of Cav2.1 with peptide (percentage of the reference compound)” value (Cav2.1; peptide at 20 μM) was 104%. For the same substance, the “Activity of Kir2.1 with peptide, expressed as a percentage of the reference compound” value (Kir2.1; peptide at 0.2 μM) was 97%, the “Activity of Kir2.1 with peptide (percentage of the reference compound)” value (Kir2.1; peptide at 20 μM) was 102% and the “Activity of TRPA1 with peptide, expressed as a percentage of the reference compound” value (TRPA1; peptide at 0.2 μM) was 129%. For the same substance, the “Activity of TRPA1 with peptide (percentage of the reference compound)” value (TRPA1; peptide at 20 μM) was 80%, the “Activity of Nav1.7 with peptide, expressed as a percentage of the reference compound” value (Nav1.7; [3]) was 61% and the “Activity of Nav1.7 with peptide, expressed as a percentage of the reference compound” value (Nav1.7; [4]) was 66%. For the same substance, the “Activity of Nav1.7 with peptide (percentage of the reference compound)” value (Nav1.7; [3]) was 74%, the “Activity of Nav1.7 with peptide (percentage of the reference compound)” value (Nav1.7; [4]) was 63% and the “Activity of a4b2 with peptide, expressed as a percentage of the reference compound” value (α4β2; peptide at 0.2 μM) was 97%. The “Activity of a4b2 with peptide (percentage of the reference compound)” value (α4β2; peptide at 20 μM) was 84%.

Source: patent US20200262877A1, “ION CHANNEL-BINDING PEPTIDES AND METHODS OF USE THEREOF” (priority 2017, published 2020)
